Experimental findings from publication PMC10663602 are described below.

The target of test [1] is hFcα-tFcµ-chi1 (human | Oncorhynchus mykiss (rainbow trout)). Kind of test: SEC; preparative SEC (Superose 6 Increase 10/300) after Ni-NTA; share of pIg and mIg in the total protein purified (Supplementary Fig. 6). Background: In gel filtration, larger molecules generally elute earlier.
In test [2] the target is hFcα-tFcµ-chi2 (human | Oncorhynchus mykiss (rainbow trout)). The description is as above.

B1: hFcα-tFcµ-chi1 (protein)
chain: CHPRLSLHRPALEDLLLGSEANLTCTLTGLRDASGVTFTWTPSSGKSAVQGPPERDLCGCYSVSSVLPGCAEPWNHGKTFTCTAAYPESKTPLTATLSKSGNTFRPEVHLLPPPSEELALNELVTLTCLARGFSPKDVLVRWLQGSQELPREKYLTWASRQEPSQGTTTFAVTSILRVAAEDWKKGDTFSCMVGHEALPLAFTNIIMRTIDRTSNQPNLVNLSLNVPQRCMAQ
modifications: here or on the partner: N-glycosylated; polymeric, about a dimer by SEC-MALS. Table prints the same sequence for chi1 and chi2 / N-glycosylated; polymeric, about a dimer by SEC-MALS. Table prints the same sequence for chi1 a
The molecule B1 came in with a percent of the total protein purified that is pIg in test [1] of under 30%.

B2: hFcα-tFcµ-chi2 (protein)
chain: CHPRLSLHRPALEDLLLGSEANLTCTLTGLRDASGVTFTWTPSSGKSAVQGPPERDLCGCYSVSSVLPGCAEPWNHGKTFTCTAAYPESKTPLTATLSKSGNTFRPEVHLLPPPSEELALNELVTLTCLARGFSPKDVLVRWLQGSQELPREKYLTWASRQEPSQGTTTFAVTSILRVAAEDWKKGDTFSCMVGHEALPLAFTNIIMRTIDRTSNQPNLVNLSLNVPQRCMAQ
modifications: here or on the partner: N-glycosylated; P1 about a tetramer, P2 monomer. Table prints the same sequence for chi1 and chi2 / N-glycosylated; P1 about a tetramer, P2 monomer. Table prints the same sequence for chi1 and chi2
B2 showed a percent of the total protein purified that is pIg in test [2] of under 30%.
